Results from patent US20110262445A1 (CEPHALON AUSTRALIA, published 2011).
Substitutions are numbered along the chain they refer to. Names and notes keep the numbering of the source.

T1: human IL-12 (human, UniProt P29460 23-328; P29459 23-219)
T1 construct: Recombinant (Peprotech); FLAG-tagged IL-12 in the flow cytometry assays, biotinylated in the IL-12Rβ2 assay; also called hIL-12
T1 sequence 1: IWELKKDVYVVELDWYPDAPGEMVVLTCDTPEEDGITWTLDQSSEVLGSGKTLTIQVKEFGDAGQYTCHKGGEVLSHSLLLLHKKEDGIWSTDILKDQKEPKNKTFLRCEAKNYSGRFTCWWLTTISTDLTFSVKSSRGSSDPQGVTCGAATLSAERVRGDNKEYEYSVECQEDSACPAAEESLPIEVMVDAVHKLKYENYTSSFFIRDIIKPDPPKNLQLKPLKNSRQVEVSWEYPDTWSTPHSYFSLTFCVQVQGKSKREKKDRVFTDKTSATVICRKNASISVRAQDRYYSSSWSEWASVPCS
T1 sequence 2: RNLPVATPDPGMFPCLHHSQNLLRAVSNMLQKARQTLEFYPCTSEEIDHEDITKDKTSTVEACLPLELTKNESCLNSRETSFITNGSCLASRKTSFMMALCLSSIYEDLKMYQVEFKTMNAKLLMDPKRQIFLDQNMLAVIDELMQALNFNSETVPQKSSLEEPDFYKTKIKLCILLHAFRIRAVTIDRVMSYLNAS

T2: human IL-23 (human, UniProt P29460 23-328; Q9NPF7 20-189)
T2 construct: Recombinant (Ebioscience); HIS-tagged in flow cytometry, biotinylated in some assays; also called hIL-23; rhIL-23
T2 sequence 1: T1 sequence 1
T2 sequence 2: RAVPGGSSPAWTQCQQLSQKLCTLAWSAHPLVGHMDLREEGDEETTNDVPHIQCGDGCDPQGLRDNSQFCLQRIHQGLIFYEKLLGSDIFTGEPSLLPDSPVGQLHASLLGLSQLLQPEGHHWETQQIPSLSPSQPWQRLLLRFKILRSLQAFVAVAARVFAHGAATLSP

B1: scFv combo. # 3 (scFv)
scFv: QVQLVQSGAEVKKPGASVKVSCKASGYAFTDYYLHWVRQAPGQGLEWMGWIDPENGDTEYAPKFQGRVTMTTDTSTSTAYMELRSLRSDDTAVYYCNANKELRYFDVWGQGTMVTVSSGGGGSGGGGSGGGGSEIVMTQSPATLSVSPGERATLSCRAPQSISINLHWYQQKPGQAPRLLIYFASQSISGIPARFSGSGSGTEFTLTISSLQSEDFAVYYCQQSNSFPLTFGGGTKVEIKR
notes: scFv-80 with VH T28A; VL S26P; not shown: proprietary C-terminal FLAG tag
B2: scFv combo. # 4 (scFv)
scFv: B1 scFv with A28T, F29L
notes: scFv-80 with VH F29L; VL S26P; not shown: proprietary C-terminal FLAG tag
B3: scFv combo. # 16 (scFv)
scFv: B1 scFv with A28T, F29L, P159S, S185R
notes: scFv-80 with VH F29L; VL S52R; not shown: proprietary C-terminal FLAG tag
B4: scFv combo. # 5 (scFv)
scFv: B1 scFv with P159S, S196F
notes: scFv-80 with VH T28A; VL S63F; not shown: proprietary C-terminal FLAG tag
B5: scFv combo. # 15 (scFv)
scFv: B1 scFv with A28T, F29L, P159S, S196F
notes: scFv-80 with VH F29L; VL S63F; not shown: proprietary C-terminal FLAG tag
B6: Antibody 199 (antibody, human IgG1, kappa, V domains shown)
VH: QVQLVQSGAEVKKPGASVKVSCKASGYTFTDYYLHWVRQAPGQGLEWMGWIDPENGDTEYAPKFQGRVTMTTDTSTSTAYMELRSLRSDDTAVYYCAANKELRYFDVWGQGTMVTVSS
VL: EIVMTQSPATLSVSPGERATLSCRASQSISINLHWYQQKPGQAPRLLIYFASQSISGIPARFSGSGSGTEFTLTISSLQSEDFAVYYCQQSNSFPLTFGGGTKVEIKR
B7: Antibody 191 (antibody, human IgG1, kappa, V domains shown)
VH: B6 VH
VL: DIQMTQSPSSVSASVGDRVTITCRASQSISINLHWYQQKPGKAPKLLIYFASQSISGVPSRFSGSGSGTDFSLTINSLQTEDFATYYCQQSNSFPLTFGGGTKVEIKR
B8: Antibody 196 (antibody, human IgG1, kappa, V domains shown)
VH: B6 VH with K12E, R67G
VL: B7 VL
B9: Antibody 197 (antibody, human IgG1, kappa, V domains shown)
VH: B6 VH with Q43R
VL: B7 VL
B10: Antibody 204 (antibody, human IgG1, kappa, V domains shown)
VH: B6 VH with K12E, R67G
VL: B6 VL
notes: not the murine PMA204
B11: Antibody 201 (antibody, human IgG1, kappa, V domains shown)
VH: B6 VH with Y60S
VL: B6 VL
B12: Antibody 203 (antibody, human IgG1, kappa, V domains shown)
VH: B6 VH with Y60H
VL: B6 VL
B13: Antibody 200 (antibody, human IgG1, kappa, V domains shown)
VH: B6 VH with F29L
VL: B6 VL
B14: Antibody 202 (antibody, human IgG1, kappa, V domains shown)
VH: B6 VH with F29L, Y60S
VL: B6 VL
notes: not the murine PMA202
B15: Antibody 175 (antibody, human IgG1, kappa, V domains shown)
VH: EVQLVQSGAEVKKPGATVKISCKASGYAFSDYYLHWVRQAPEKGLEWMGWIDPENGDTEYAPKFQGRVTITADTSTDTGYLELSSLRSEDTAVYYCAANKELRYFDVWGQGTLVTVSS
VL: B7 VL
B16: Antibody 179 (antibody, human IgG1, kappa)
heavy: not shown
light: DIQMTQSPSSVSASVGDRVTITCRASQSISINLHWYQQKPGKAPKLLIYFASQSISGVPSRFSGSGSGTDFSLTINSLQTEDFATYYCQQSNSFPLTFGGGTKVEIKRTVAAPSVFIFPPSDEQLKSGTASVVCLLNNFYPREAKVQWKVDNALQSGNSQESVTEQDSKDSTYSLSSTLTLSKADYEKHKVYACEVTHQGLSSPVTKSFNRGEC
B17: Antibody 206 (antibody, human IgG1, kappa, V domains shown)
VH: B6 VH with T28A
VL: B6 VL
B18: Antibody 5 (antibody, human IgG1, kappa, V domains shown)
VH: EVQLQQSGADLVRSGASIKLSCTASGFNIKDYYMHWVKQRPEQGLEWIGWIDPENGDTEYAPKFQGKATMTADTSSNTAYLQLSSLTSEDTAVYYCNAAKELRYFDVWGAGTTVTVSS
VL: DIVLTQSPATLSVTPGDSVSLSCRASQSISINLHWYQQKSHESPRLLIKFASQSISGIPSRFSGYGSGTDFTLSINSVETEDFGRYFCQQSNSWPLTFGAGTKLELKR
B19: Antibody 8 (antibody, human IgG1, kappa, V domains shown)
VH: B18 VH with A99D
VL: B18 VL
B20: Antibody 6 (antibody, human IgG1, kappa, V domains shown)
VH: B18 VH with A99R
VL: B18 VL

Each binder was assayed against T1, human IL-12 (assay: SPR, single 81 nM analyte, scFv via FLAG).

Row | Kd | koff | kon | Binder
1 | 29 pM | 4.5e-05 s⁻¹ | 1.6e+06 M⁻¹ s⁻¹ | B1
2 | 27 pM | 4.8e-05 s⁻¹ | 1.8e+06 M⁻¹ s⁻¹ | B2
3 | 50 pM | 7.5e-05 s⁻¹ | 1.5e+06 M⁻¹ s⁻¹ | B3
4 | 38 pM | 6.5e-05 s⁻¹ | 1.7e+06 M⁻¹ s⁻¹ | B4
5 | 39 pM | 6.4e-05 s⁻¹ | 1.7e+06 M⁻¹ s⁻¹ | B5

What follows are binders tested against T2, human IL-23 (assay: ELISA, coated IL-23).
Protocol: (§1) IL-12 (Peprotech), IL-23 (Ebioscience™), IL-12p40 (Ebioscience™) or IL-12p80 (Peprotech), was diluted to 1 μg/mL in carbonate coating buffer ([…] pH 9.6) and coated onto a 96 well plate (Nunc™, Maxisorp™) overnight at 4° C. The plate was then washed three times with wash buffer (0.01M PBS pH 7.2, 0.05% Tween-20) and then three times with 0.01M PBS pH 7.2. The wells were then blocked by adding 200 μl of blocking buffer (1% w/v BSA in 0.01 M PBS pH 7.2) to each well and incubating the plate at 25° C. for 1 hour. The antibody was diluted in antibody diluent (1% w/v BSA, 0.05% Tween-20 in 0.01M PBS pH 7.2) sufficient to generate a titration curve. The wells were incubated with the antibody for 1 hour at 25° C. The plate was then washed as previously described. Goat anti-human immunoglobulin G (H+L) antibody HRP conjugate (Zymed®) at 1:2000 in antibody diluent was used to detect bound primary antibody. Goat anti-murine immunoglobulin antibody HRP conjugate (Dako) at 1:2000 in antibody diluent was used to detect bound murine antibody. After incubation at 25° C. for 1 hour the plate was washed again as previously described. TMB substrate solution (Zymed®) was added to each well and the colour allowed to develop; the reaction was terminated by adding 1M HCl to the wells. The absorbance of each well was determined at 450 nm (ref. 620 nm).

Row | binding result | Binder
6 | binds | B6
7 | binds | B7
8 | binds | B8
9 | binds | B9
10 | binds | B10
11 | binds | B11
12 | binds | B12
13 | binds | B13
14 | binds | B14
15 | binds | B15
16 | binds | B16

These binders were tested against T1, human IL-12 (assay: ELISA, coated IL-12).
Protocol: as §1

Row | binding result | Binder
17 | binds | B6
18 | binds | B7
19 | binds | B17
20 | binds | B8
21 | binds | B9
22 | binds | B10
23 | binds | B11
24 | binds | B12
25 | binds | B13
26 | binds | B14
27 | binds | B15
28 | binds | B16

Target: T2, human IL-23
Assay: ELISA, coated IL-23
Remark: another data set of the same source
Protocol: This cysteine at the start of CDR3 could be oxidized, causing heterogeneity in any resulting antibody product. It could also form complexes by disulphide bond formation. Therefore, each of the other 18 (the exceptions being the original Cys and Trp) amino acids was substituted in this position using gene synthesis, and the antibodies were expressed transiently (Antibodies 5, 6, 7, 8, 9, 10, 11, 12, 13, 14, 15, 16, 17, 18, 19, 20, 21, 22). An ELISA was performed on these antibodies (FIG. 9). Some of the antibodies retained binding activity for both IL-12 and IL-23, others only for one cytokine or the other, while others minimally bound to either cytokine.
as §1

Row | binding result | Binder
29 | binds | B18
30 | binds | B19

Target: T1, human IL-12
Assay: ELISA, coated IL-12
Remark: another data set of the same source
Outline: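 Maxisorp plates were coated overnight at 4° C with cytokine at 1 μg/mL in carbonate buffer pH 9.6, then blocked for 1 hour at 25° C with 1% BSA in PBS. Antibody titrations were allowed to bind for 1 hour at 25° C and detected with goat anti-human IgG or anti-murine immunoglobulin HRP (1:2000, 1 hour), followed by TMB development stopped with 1M HCl. Binding is reported as absorbance. Readings were taken at 450 nm against a 620 nm reference.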

Row | binding result | Binder
31 | binds | B18
32 | no binding (tested: not given) | B20
33 | binds | B19
